In patent publication US20170165342A1 (VIRGINIA COMMONWEALTH UNIVERSITY, published 2017):
Where “and” joins values, the source holds several entries; their conditions need not be identical. Identical values can stand only once.

T1: sLe^x-capped P-selectin glycoprotein ligand-1 (PSGL-1) (UniProt Q14242 42-412, capped with the sialyl Lewis x (sLe^x) O-glycan)
T1 sequence: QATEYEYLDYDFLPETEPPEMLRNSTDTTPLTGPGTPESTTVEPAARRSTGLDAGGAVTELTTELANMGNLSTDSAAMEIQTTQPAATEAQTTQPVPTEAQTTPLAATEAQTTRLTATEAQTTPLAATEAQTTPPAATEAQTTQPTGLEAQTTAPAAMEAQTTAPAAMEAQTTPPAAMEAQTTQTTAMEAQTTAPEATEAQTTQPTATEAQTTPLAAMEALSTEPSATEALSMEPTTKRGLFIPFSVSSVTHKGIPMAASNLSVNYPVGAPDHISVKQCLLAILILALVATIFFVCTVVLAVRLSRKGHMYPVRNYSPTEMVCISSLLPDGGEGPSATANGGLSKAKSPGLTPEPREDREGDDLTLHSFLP

B1: OmpA (outer membrane protein A) on the surface of A. phagocytophilum DC organisms (other)
chain: CGTLLPDSNVGVGRHDLGSHRSVAFAKKVEKVYFDIGKYDLKGPGKKVILELVEQLRQDDSMYLVVIGHADATGTEEYSLALGEKRANAVKQFIIGCDKSLAPRVTTQSRGKAEPEVLVYSTDAQEVEKANAQNRRAVIVVEFAHIPRSGVADMHAPVASSITSENSNASAEGEDMEASEFSSAIAN

Experiments:
[1] = target: sLe^x-capped P-selectin glycoprotein ligand-1 (PSGL-1) (UniProt Q14242); assay: cell-based or functional assay
[2] = target: T1, sLe^x-capped P-selectin glycoprotein …; assay: cell-based or functional assay

Molecule	numbers of bound DC organisms per PSGL-1 CHO cell after incubating PSGL-1 CHO cells with KPL-1 (fold reduction) [1]	bacterial binding to PSGL-1 CHO cells after pretreating bacteria with anti-OmpA [2] [fold reduction]
KPL-1, PSGL-1 N-terminus-specific antibody	2 and 3	–
B1	–	~2
